What was measured:
Type in all cases: cell-based
A. baumannii = test: MIC and MBC, broth microdilution in CAA media
Description: (§1) In addition, MIC (Minimal Inhibitory Concentration) and MBC (Minimal Bactericidal Concentration) of the fusion polypeptide LNT103 were measured. […] Specifically, the LNT103 was treated at a concentration of 64 μg/ml to a 96 well microplate row A, and the LNT103 was treated at a concentration where serial dilution was performed by ½ in rows B-G. To the row H, LNT103 was not treated. After that, the corresponding bacterium strain (type or QC, CCARM and clinical separation strain; See Tables 2-4) was treated in an amount of 5×10^5 CFU/ml, total 100 μl in all wells. Then, it was cultured at 37° C. for 18 hours. MIC was determined to be the lowest concentration at which no colonies were identified by confirming the number of the colonies in each well.

P. aeruginosa = test: MIC and MBC, broth microdilution in CAA media
Description: as §1

Campylobacter jejuni = test: Spot test (halo zone); design: key: ‘◯’ means production of the halo zone; settings: C. jejuni KCTC 5327
Text: (§2) In the present example, in order to investigate a target bacteria spectrum of the bacteriophage PBPA90 selected in the Examples 1.1 and 1.2 and endolysin LNT101 separated and purifying in the Example 1.3, the antibacterial activity against gram negative bacterium such as Pseudomonas aeruginosa ATCC13388, ATCC9027, ATCC10145, ATCC15692, ATCC15522, ATCC25619, ATCC27853, CCARM2134, CCARM2200, CCARM2029, CCARM2144, CCARM2298, CCARM2326, PR01957, E. coli ATCC8739, Enterobacter cloacae CCARM0252, Klebsiella pneumoniae KCTC2261, Klebsiella aerogenes CCARM16006, Campylobacter jejuni KCTC5327, Cronobacter sakazakii KCTC2949, Salmonella typhimurium ATCC14028, Salmonella enteritidis ATCC13076 was tested.
(§3) The target bacteria spectrum of the bacteriophage PBPA90 and endolysin LNT101 was confirmed by a spot test. For the spot test, bacterium sterilized in 4 ml top agar (1% Tryptone, 0.5% Yeast extract, 0.5% NaCl, 0.7% agar) of 1×10^11 CFU/200 μl were added and poured to a LB plate. After hardening the top agar, the bacteriophage PBPA90 10 μl (1×10^8 PFU/ml) or LNT101 10 μl (2 mg/ml) was spotted, and it was incubated at 37° C. for 18 hours.

Cronobacter sakazakii = test: Spot test (halo zone); design: key: ‘◯’ means production of the halo zone; settings: C. sakazakii KCTC 2949
Text: as §2, §3

E. coli = test: Spot test (halo zone); design: key: ‘◯’ means production of the halo zone; settings: E. coli ATCC 8739
Text: as §2, §3

Enterobacter cloacae = test: Spot test (halo zone); design: key: ‘◯’ means production of the halo zone; settings: E. cloacae CCARM 0252
Text: as §2, §3

Klebsiella aerogenes = test: Spot test (halo zone); design: key: ‘◯’ means production of the halo zone; settings: K. aerugenes CCARM 16006
Text: as §2, §3

Klebsiella pneumoniae = test: Spot test (halo zone); design: key: ‘◯’ means production of the halo zone; settings: K. pneumoniae KCTC 2261
Text: as §2, §3

Pseudomonas aeruginosa = test: Spot test (halo zone); design: key: ‘◯’ means production of the halo zone
Text: as §2, §3

Salmonella enteritidis = test: Spot test (halo zone); design: key: ‘◯’ means production of the halo zone; settings: S. enteritidis ATCC 13076
Text: as §2, §3

Salmonella typhimurium = test: Spot test (halo zone); design: key: ‘◯’ means production of the halo zone; settings: S. typhimurium ATCC 14028
Text: as §2, §3

[1] = A. baumannii 643(Kyungpook National University)
[2] = A. baumannii 3680(Gyeongsang National University)

B1: LNT103: fusion polypeptide [Cecropin A]-[linker (GSGSGS)]-[endolysin LNT102]; SEQ ID NO: 15 (MAS, His tag) used in the tests (protein)
chain: MASKWKLFKKIEKVGQNIRDGIIKAGPAVAVVGQATQIAKGSGSGSMGTVLKRGDRGSAVEDLQMKLNVAGYNLSADGIFGGDTEKAVRDVQAGAGLVVDGKVGPKTLYAIAKSATVPAKWEAIPFPTANKSRSAAMPTLNAVGAMTGVDSRLLATFASIESAFDYTVKAKTSSATGWFQFLDATWDDMIKAYGSKYGIPKDPTRALRKDPRANALMGAEFIKGNAAVLRPVINREPSDTDLYLAHFLGAGGAKKFLSADQKTLGEVLFPKPAKANPSIFSNKGVPRTLAEIYKLFEDKVSKHRALEHHHHHH
modifications: synthetic_Fusion Polypeptide LNT103 with MAS, His tag, and extra sequence
- MBC (A. baumannii; [1]): 16 µg/mL
- MIC (A. baumannii; [1]): 8 µg/mL
- MBC (A. baumannii; [2]): 8 µg/mL
- MIC (A. baumannii; [2]): 8 µg/mL
- MBC (A. baumannii; A. baumannii ATCC 17978): 8 µg/mL
- MIC (A. baumannii; A. baumannii ATCC 17978): 8 µg/mL
- MBC (A. baumannii; A. baumannii ATCT 19606): 8 µg/mL
- MIC (A. baumannii; A. baumannii ATCT 19606): 8 µg/mL
- MBC (A. baumannii; A. baumannii CCARM 12001): 8 µg/mL
- MIC (A. baumannii; A. baumannii CCARM 12001): 8 µg/mL
- MBC (A. baumannii; A. baumannii CCARM 12015): 16 µg/mL
- MIC (A. baumannii; A. baumannii CCARM 12015): 16 µg/mL
- MBC (A. baumannii; A. baumannii CCARM 12026): 8 µg/mL
- MIC (A. baumannii; A. baumannii CCARM 12026): 8 µg/mL
- MBC (A. baumannii; A. baumannii CCARM 12035): 8 µg/mL
- MIC (A. baumannii; A. baumannii CCARM 12035): 8 µg/mL
- MBC (A. baumannii; A. baumannii CCARM 12202): 8 µg/mL
- MIC (A. baumannii; A. baumannii CCARM 12202): 8 µg/mL
- MBC (A. baumannii; A. baumannii F4): 16 µg/mL
- MIC (A. baumannii; A. baumannii F4): 16 µg/mL
- MBC (A. baumannii; A. baumannii F15): 8 µg/mL
- MIC (A. baumannii; A. baumannii F15): 8 µg/mL
- MBC (A. baumannii; A. baumannii F65): 4 µg/mL
- MIC (A. baumannii; A. baumannii F65): 4 µg/mL
- MBC (A. baumannii; A. baumannii F66): 4 µg/mL
- MIC (A. baumannii; A. baumannii F66): 4 µg/mL
- MBC (A. baumannii; A. baumannii F67): 8 µg/mL
- MIC (A. baumannii; A. baumannii F67): 8 µg/mL
- MBC (A. baumannii; A. baumannii F68): 4 µg/mL
- MIC (A. baumannii; A. baumannii F68): 4 µg/mL
- MBC (A. baumannii; A. baumannii F69): 8 µg/mL
- MIC (A. baumannii; A. baumannii F69): 8 µg/mL
- MBC (A. baumannii; A. baumannii F70): 16 µg/mL
- MIC (A. baumannii; A. baumannii F70): 16 µg/mL
- MBC (A. baumannii; A. baumannii F71): 8 µg/mL
- MIC (A. baumannii; A. baumannii F71): 8 µg/mL
- MBC (A. baumannii; A. baumannii KACC 13090): 8 µg/mL
- MIC (A. baumannii; A. baumannii KACC 13090): 8 µg/mL
- MBC (A. baumannii; A. baumannii KACC 14233): 8 µg/mL
- MIC (A. baumannii; A. baumannii KACC 14233): 8 µg/mL
- MBC (P. aeruginosa; P. aeruginosa ATCC 9027): 16 µg/mL
- MIC (P. aeruginosa; P. aeruginosa ATCC 9027): 16 µg/mL
- MBC (P. aeruginosa; P. aeruginosa ATCC 10145): 32 µg/mL
- MIC (P. aeruginosa; P. aeruginosa ATCC 10145): 16 µg/mL
- MBC (P. aeruginosa; P. aeruginosa ATCC 15522): 16 µg/mL
- MIC (P. aeruginosa; P. aeruginosa ATCC 15522): 16 µg/mL
- MBC (P. aeruginosa; P. aeruginosa ATCT 13388): 16 µg/mL
- MIC (P. aeruginosa; P. aeruginosa ATCT 13388): 8 µg/mL
- MBC (P. aeruginosa; P. aeruginosa CCARM 2134): 16 µg/mL
- MIC (P. aeruginosa; P. aeruginosa CCARM 2134): 8 µg/mL
- MBC (P. aeruginosa; P. aeruginosa CCARM 2144): 32 µg/mL
- MIC (P. aeruginosa; P. aeruginosa CCARM 2144): 32 µg/mL
- MBC (P. aeruginosa; P. aeruginosa F102): 8 µg/mL
- MIC (P. aeruginosa; P. aeruginosa F102): 8 µg/mL
- MBC (P. aeruginosa; P. aeruginosa F141): 8 µg/mL
- MIC (P. aeruginosa; P. aeruginosa F141): 8 µg/mL
- MBC (P. aeruginosa; P. aeruginosa F265): 16 µg/mL
- MIC (P. aeruginosa; P. aeruginosa F265): 16 µg/mL
- MBC (P. aeruginosa; P. aeruginosa F341): 8 µg/mL
- MIC (P. aeruginosa; P. aeruginosa F341): 8 µg/mL
- MBC (P. aeruginosa; P. aeruginosa F388): 8 µg/mL
- MIC (P. aeruginosa; P. aeruginosa F388): 8 µg/mL
- MBC (P. aeruginosa; P. aeruginosa PAO1(ATCC 15692)): 16 µg/mL
- MIC (P. aeruginosa; P. aeruginosa PAO1(ATCC 15692)): 8 µg/mL

B2: LNT101: endolysin derived from bacteriophage PBPA90, amino acid sequence SEQ ID NO: 1 (259 aa), purified with 6× His tag (protein)
chain: MGTVLKRGDRGSAVEDLQMKLRVAGYAVSADGIFGGDTEKAVRDFQASKALVVDGKVGPATLAELAKSATVPAKWEAIPFPTANKSRSAAMPTLNAVGAMTGTDSRLLATFASIESAFDYTVKASTSSATGWFQFLDATWDDMIKAHGSKYGIPKDPTRALRKDPRANALMGAEFLKGNAAVLRPVINREPSDTDLYLAHFLGAGGAKKFLSADQKTLGEVLFPKPAKANPSIFSNKGVPRTLAEIYKLFEDKVSKHRA
modifications: 6xHis tag; synthetic_Endolysin LNT101
- production of the halo zone (Campylobacter jejuni): ◯
- production of the halo zone (Cronobacter sakazakii): ◯
- production of the halo zone (E. coli): ◯
- production of the halo zone (Enterobacter cloacae): ◯
- production of the halo zone (Klebsiella aerogenes): ◯
- production of the halo zone (Klebsiella pneumoniae): ◯
- production of the halo zone (Pseudomonas aeruginosa; P. aeruginosa ATCC 9027): ◯
- production of the halo zone (Pseudomonas aeruginosa; P. aeruginosa ATCC 10145): ◯
- production of the halo zone (Pseudomonas aeruginosa; P. aeruginosa ATCC 13388, 10 μl (2 mg/ml), 37° C. 18 hours): ◯
- production of the halo zone (Pseudomonas aeruginosa; P. aeruginosa ATCC 15522): ◯
- production of the halo zone (Pseudomonas aeruginosa; P. aeruginosa ATCC 15692): ◯
- production of the halo zone (Pseudomonas aeruginosa; P. aeruginosa ATCC 25619): ◯
- production of the halo zone (Pseudomonas aeruginosa; P. aeruginosa ATCC 27853): ◯
- production of the halo zone (Pseudomonas aeruginosa; P. aeruginosa CCARM 2029): ◯
- production of the halo zone (Pseudomonas aeruginosa; P. aeruginosa CCARM 2134): ◯
- production of the halo zone (Pseudomonas aeruginosa; P. aeruginosa CCARM 2144): ◯
- production of the halo zone (Pseudomonas aeruginosa; P. aeruginosa CCARM 2200): ◯
- production of the halo zone (Pseudomonas aeruginosa; P. aeruginosa CCARM 2298): ◯
- production of the halo zone (Pseudomonas aeruginosa; P. aeruginosa CCARM 2326): ◯
- production of the halo zone (Pseudomonas aeruginosa; P. aeruginosa PR1957): ◯
- production of the halo zone (Salmonella enteritidis): ◯
- production of the halo zone (Salmonella typhimurium): ◯

From patent US11807881B2, “Polypeptide, fusion polypeptide, and antibiotic against gram-negative bacteria comprising same” (priority 2020, dated 2023)
